# Measurements published in patent US20110071283.
# System: fibrinogen
substance,measurement,value
human thrombin,SDS-PAGE analysis of hydrolysis of fibrinogen (Aα-strand),has a similar strength to human thrombin
